test system: Escherichia coli TOP10; experiment: shrunken log2 fold change of peptide-encoding DNA abundance (4.5 h post-induction vs induction); higher = less antimicrobial activity (less host growth inhibition); conditions: time post-induction: 4.5 h; library: site-saturation at positions 5, 18, 19, 20
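Note: peptides expressed intracellularly from a pBAD plasmid library in pooled LB shake-flask culture, induced with 0.3% L-arabinose, DNA abundance read by NGS, three biological replicates, DESeq2 with apeglm shrinkage.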

| Sequence | shrunken log2 fold change |
| --- | --- |
| RRIRWRPPRLPRPRPRPIQCPRP | -0.0122 |
| RRIRMRPPRLPRPRPRPFSLPRP | -0.282 |
| RRIRLRPPRLPRPRPRPRYDPRP | 0.0436 |
| RRIRERPPRLPRPRPRPWFAPRP | -0.276 |
| RRIRTRPPRLPRPRPRPNGDPRP | -0.0598 |
| RRIRYRPPRLPRPRPRPFKGPRP | 0.00253 |
| RRIRHRPPRLPRPRPRPRHPPRP | 0.0823 |
| RRIRMRPPRLPRPRPRPTATPRP | 3.59 |
| RRIRERPPRLPRPRPRPAHYPRP | -0.148 |
| RRIRKRPPRLPRPRPRPLPQPRP | 0.729 |
| RRIRKRPPRLPRPRPRPMFMPRP | -0.116 |
| RRIRNRPPRLPRPRPRPNARPRP | 0.0522 |
| RRIRDRPPRLPRPRPRPVESPRP | -0.373 |
| RRIRLRPPRLPRPRPRPVRSPRP | 0.53 |
| RRIRYRPPRLPRPRPRPLHPPRP | -0.0607 |
| RRIRGRPPRLPRPRPRPTHSPRP | 0.587 |
| RRIRVRPPRLPRPRPRPNSLPRP | 0.0679 |
| RRIRLRPPRLPRPRPRPKVEPRP | -0.0879 |
| RRIRQRPPRLPRPRPRPRCDPRP | -0.255 |
| RRIRDRPPRLPRPRPRPLFHPRP | -0.152 |
| RRIRMRPPRLPRPRPRPVMCPRP | 0.321 |
| RRIRFRPPRLPRPRPRPEQSPRP | 0.0672 |

| Sequence | shrunken log2 fold change |
| --- | --- |
| RRIRLRPPRLPRPRPRPYAGPRP | 0.0235 |
| RRIRCRPPRLPRPRPRPYLFPRP | -1.19 |
| RRIRWRPPRLPRPRPRPIFTPRP | -0.173 |
| RRIRSRPPRLPRPRPRPSWYPRP | -0.745 |
| RRIRGRPPRLPRPRPRPHKSPRP | 0.277 |
| RRIRSRPPRLPRPRPRPPSCPRP | -0.0434 |
| RRIRWRPPRLPRPRPRPHREPRP | -0.0345 |
| RRIRDRPPRLPRPRPRPLTSPRP | 0.109 |
| RRIRHRPPRLPRPRPRPNDRPRP | -0.104 |
| RRIRYRPPRLPRPRPRPVKHPRP | -0.122 |
| RRIRYRPPRLPRPRPRPRSKPRP | -0.439 |
| RRIRNRPPRLPRPRPRPCDHPRP | -0.0208 |
| RRIRARPPRLPRPRPRPAMLPRP | 0.226 |
| RRIRSRPPRLPRPRPRPECNPRP | 0.218 |
| RRIRPRPPRLPRPRPRPCRNPRP | -0.176 |
| RRIRNRPPRLPRPRPRPSPPPRP | -0.0562 |
| RRIRSRPPRLPRPRPRPPHEPRP | 0.229 |
| RRIRTRPPRLPRPRPRPQLAPRP | 0.129 |
| RRIRYRPPRLPRPRPRPNCAPRP | -0.214 |
| RRIRWRPPRLPRPRPRPECCPRP | 1.22 |
| RRIRMRPPRLPRPRPRPKFPPRP | 0.455 |
| RRIRRRPPRLPRPRPRPQVHPRP | 0.148 |

| Sequence | shrunken log2 fold change |
| --- | --- |
| RRIRNRPPRLPRPRPRPVFNPRP | -0.242 |
| RRIRIRPPRLPRPRPRPLRQPRP | 0.335 |
| RRIRRRPPRLPRPRPRPVTMPRP | 0.0683 |
| RRIRTRPPRLPRPRPRPGPWPRP | 0.215 |
| RRIRTRPPRLPRPRPRPLSAPRP | 0.369 |
| RRIRSRPPRLPRPRPRPIGRPRP | 0.104 |
| RRIRGRPPRLPRPRPRPVAHPRP | 0.548 |
| RRIRGRPPRLPRPRPRPFDCPRP | -0.208 |
| RRIRMRPPRLPRPRPRPDVVPRP | -0.0061 |
| RRIRVRPPRLPRPRPRPQECPRP | -0.00813 |
| RRIRKRPPRLPRPRPRPRAFPRP | 0.326 |
| RRIRERPPRLPRPRPRPPKAPRP | 0.312 |
| RRIRIRPPRLPRPRPRPHMMPRP | -1.37 |
| RRIRNRPPRLPRPRPRPNQYPRP | -0.712 |
| RRIRHRPPRLPRPRPRPVQTPRP | -0.011 |
| RRIRSRPPRLPRPRPRPVWMPRP | 0.396 |
| RRIRKRPPRLPRPRPRPFIRPRP | -0.21 |
| RRIRNRPPRLPRPRPRPRNQPRP | -0.182 |
| RRIRWRPPRLPRPRPRPGFEPRP | 0.427 |
| RRIRPRPPRLPRPRPRPWHGPRP | 0.0257 |
| RRIRQRPPRLPRPRPRPTCNPRP | -0.348 |
| RRIRHRPPRLPRPRPRPRLFPRP | 0.164 |

| Sequence | shrunken log2 fold change |
| --- | --- |
| RRIRSRPPRLPRPRPRPKYNPRP | -0.62 |
| RRIRDRPPRLPRPRPRPNAIPRP | 0.13 |
| RRIRLRPPRLPRPRPRPYFAPRP | -0.233 |
| RRIRFRPPRLPRPRPRPLVGPRP | -0.0413 |
| RRIRPRPPRLPRPRPRPYNPPRP | -0.84 |
| RRIRMRPPRLPRPRPRPPFHPRP | 0.0707 |
| RRIRSRPPRLPRPRPRPFTPPRP | -0.0114 |
| RRIRFRPPRLPRPRPRPMLPPRP | -0.184 |
| RRIRVRPPRLPRPRPRPHYSPRP | -0.424 |
| RRIRYRPPRLPRPRPRPSIPPRP | -1.32 |
| RRIRWRPPRLPRPRPRPWVQPRP | 0.128 |
| RRIRTRPPRLPRPRPRPGLWPRP | 0.521 |
| RRIRHRPPRLPRPRPRPSIHPRP | -0.924 |
| RRIRIRPPRLPRPRPRPVCWPRP | 0.32 |
| RRIRPRPPRLPRPRPRPRYHPRP | -0.224 |
| RRIRRRPPRLPRPRPRPHATPRP | 0.492 |
| RRIRERPPRLPRPRPRPTTPPRP | -0.0926 |
| RRIRSRPPRLPRPRPRPVWPPRP | 0.434 |
| RRIRIRPPRLPRPRPRPISSPRP | -0.16 |
| RRIRTRPPRLPRPRPRPNFHPRP | -0.19 |
| RRIRQRPPRLPRPRPRPISCPRP | -0.00146 |
| RRIRQRPPRLPRPRPRPNRAPRP | 0.025 |

| Sequence | shrunken log2 fold change |
| --- | --- |
| RRIRNRPPRLPRPRPRPVLQPRP | -0.157 |
| RRIRIRPPRLPRPRPRPYCAPRP | -0.978 |
| RRIRNRPPRLPRPRPRPYALPRP | -0.399 |
| RRIRMRPPRLPRPRPRPYLYPRP | -0.0828 |
| RRIRCRPPRLPRPRPRPTDHPRP | -0.257 |
| RRIRLRPPRLPRPRPRPACFPRP | 0.259 |
| RRIRWRPPRLPRPRPRPEQIPRP | 0.199 |
| RRIRLRPPRLPRPRPRPAYIPRP | -0.098 |
| RRIRRRPPRLPRPRPRPAGKPRP | 0.211 |
| RRIRTRPPRLPRPRPRPAKIPRP | 0.0299 |
| RRIRNRPPRLPRPRPRPQHIPRP | -0.114 |
| RRIRARPPRLPRPRPRPVLLPRP | 0.122 |
| RRIRMRPPRLPRPRPRPMIWPRP | 0.237 |
| RRIRHRPPRLPRPRPRPVHRPRP | -0.143 |
| RRIRDRPPRLPRPRPRPIVSPRP | 0.041 |
| RRIRVRPPRLPRPRPRPWFHPRP | -0.711 |
| RRIRERPPRLPRPRPRPHCEPRP | -0.056 |
| RRIRNRPPRLPRPRPRPCQAPRP | -0.112 |
| RRIRARPPRLPRPRPRPHMPPRP | -0.419 |
| RRIRFRPPRLPRPRPRPYKHPRP | -0.911 |
| RRIRWRPPRLPRPRPRPTPEPRP | 0.711 |

Reference: the supplement of paper PMC9112550, “Optimization of the antimicrobial peptide Bac7 by deep mutational scanning” (BMC Biology, 2022)
